Data reported in the supplement of paper PMC11908140.

B1: library; numbered along this chain (parent)
chain: MRKPRAAVGSGHRKQAASQEGRQKHAKNNSQAKPSACDGLARQPEEVVLQASVSSYHLFRDVAEVTAFRGSLLSWYDQEKRDLPWRRRAEDEMDLDRRAYAVWVSEVMLQQTQVATVINYYTGWMQKWPTLQDLASASLEEVNQLWAGLGYYSRGRRLQEGARKVVEELGGHMPRTAETLQQLLPGVGRYTAGAIASIAFGQATGVVDGNVARVLCRVRAIGADPSSTLVSQQLWGLAQQLVDPARPGDFNQAAMELGATVCTPQRPLCSQCPVESLCRARQRVEQEQLLASGSLSGSPDVEECAPNTGQCHLCLPPSEPWDQTLGVVNFPRKASRKPPREESSATCVLEQPGALGAQILLVQRPNSGLLAGLWEFPSVTWEPSEQLQRKALLQELQRWAGPLPATHLRHLGEVVHTFSHIKLTYQVYGLALEGQTPVTTVPPGARWLTQEEFHTAAVSTAMKKVFRVYQGQQPGTCMGSKRSQVSSPCSRKKPRMGQQVLDNFFRSHISTDAHSLNSAAQ

Variants of: B1
Assay: 8OG:A repair function score (normalized; synonymous = 0, nonsense = -1) (normalized log-likelihood score); higher = more repair activity (WT-like)
Settings: with 8OG:A DNA repair reporter (GFP) in HEK-293 MUTYH KO cells
Method in brief: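 With 10 pg/ml doxycycline, MUTYH knockout HEK-293 cells carrying lentiviral MUTYH cDNA NNN codon-scan libraries were co-transfected with mCherry and an 8OG:A GFP repair reporter. Viable mCherry+ cells were sorted into GFP+ (repair) and GFP− bins at 72 h, three replicates per tile, and tile amplicons were sequenced. Per-tile Rosace fitness scores were then normalized into a repair function score anchored on synonymous and nonsense distributions. Medians were fixed at 0 for synonymous and -1 for nonsense, excluding variants under 300 counts per million at the start.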

8OG:A repair function score: each site, then its substitutions
L403: I 0.0162 | V 0.058 | A -0.335 | Y -0.513 | T 0.0396 | P -0.0649 | E -0.596 | D -0.686 | M -0.0231 | F 0.0495 | C 0.158 | W -0.318 | S -0.428 | N -0.0773 | G -0.509 | R -0.392 | Q 0.0753 | K -0.295
W399: Y 0.509 | T -0.296 | R -0.289 | S -0.232 | V -0.167 | Q -0.108 | P -0.724
P402: W -0.534 | V -0.0663 | I -0.0565 | D 0.516 | G -0.274 | S -0.138 | Y -0.122 | L -0.318 | E -0.208 | A -0.0823 | F -0.215 | R -0.0808 | T -0.26 | C -0.0435 | Q -0.236 | K -0.00401 | M 0.138 | N -0.282
A405: G -0.0383 | T -0.128 | P 0.125 | R 0.00307 | M -0.161 | N -0.161 | F 0.0223 | D -0.0995 | V -0.00982 | W -0.606 | I 0.0761 | L -0.177 | H -0.489 | K 0.0168 | E 0.199 | Y -0.204 | C 0.144 | Q -0.0438 | S 0.0326
G401: D 0.0297 | V -0.142 | K -0.582 | Y -0.393 | W -0.421 | C -0.381 | F -0.16 | I -0.184 | R -0.272 | M -0.302 | L -0.214 | P 0.0452 | A -0.317 | T -0.428 | S -0.0552 | H -0.241 | N 0.111 | E 0.191 | Q -0.521
H407: R -0.0136 | V 0.0608 | D 0.0493 | G -0.0586 | T -0.107 | S -0.109 | K -0.104 | W -0.172 | A 0.245 | P -0.0456 | M -0.456 | Q 0.0383 | Y -0.269 | C -0.123 | N 0.205 | I 0.0779 | L -0.0178 | E -0.226 | F -0.245
T406: S -0.184 | E -0.17 | Y -0.265 | D 0.483 | L -0.249 | H 0.516 | I 0.313 | K 0.103 | P -0.287 | A 0.32 | R 0.0241 | N 0.0152 | V 0.013 | F -0.539 | Q -0.294 | G -0.00238 | M -0.199 | C 0.13 | W -0.0828
L408: K -0.858 | F -0.529 | H -1.11 | I 0.246 | A -0.717 | E -1.61 | D -0.946 | C 0.18 | M -0.0275 | G -0.81
P404: A -0.142 | E 0.341 | L 0.0132 | D -0.155 | I 0.118 | G -0.187 | S -0.587 | N 0.336 | T -0.55 | Y -0.119 | V -0.000894 | W -0.26 | H 0.138 | C -0.224 | K 0.298 | Q 0.15 | F -0.272 | M 0.184 | R 0.163
A400: P -0.723 | W -0.139 | Q -0.0826 | D -0.752 | K -0.458 | C -0.215 | H 0.179 | N -0.913 | I -0.319 | T -0.0197 | S -0.189 | V -0.246 | M 0.54 | R -0.432 | G -0.0159 | Y -0.116 | L -0.241 | E -0.727 | F 0.262
